Measurements taken from paper PMC11630572.

Legend:
[1] = target: recombinant spike ectodomain of SARS-CoV-2 Omicron subvariant BA.5 (SARS-CoV-2); assay: cryo-EM structure; complexes of BA.5 or JN.1 spike ectodomain with Nanosota-9-His (0.8 uM); three Nanosota-9 on each trimeric spike, two of them crosslinking two RBDs (2:2 mode)
[2] = target: recombinant spike ectodomain of SARS-CoV-2 Omicron subvariant JN.1 (SARS-CoV-2); assay: as above

Row | Substance | stoichiometry N [1] | stoichiometry N [2]
1 | recombinant spike ectodomain of SARS-CoV-2 Omicron subvariant BA.5 (domain or fragment) | 3 | –
2 | recombinant spike ectodomain of SARS-CoV-2 Omicron subvariant JN.1 (domain or fragment) | – | 3
